Measured values reported in the supplement of paper PMC9732359.
± gives the uncertainty stated by the source.

Test: protein stability index of a GFP-peptide fusion (yeast GPS) (PSI 1-4); higher = more stable; sorted into four equal gates, so the index is relative within each strain
How it was run: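 The protein stability index combines read frequencies across sorting gates, each weighted by its gate number and then summed. To obtain those frequencies, a pooled yeast library of GFP fusions to tiled 17-residue yeast protein peptides, on a plasmid also expressing Cherry, was grown to mid-log phase in leucine-free medium. The cells were sorted into four equal gates by GFP/Cherry ratio before plasmid amplification by PCR and Illumina sequencing.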

Sequence | protein stability index (doa10∆) | protein stability index (pdr5∆) | protein stability index (san1∆) | protein stability index (ubr1∆)
SKKIVPSPKKVAIDQDK [SIR4] | 2.73 ± 0.078 | 2.91 ± 0.066 | 2.59 ± 0.06 | 2.92 ± 0.057
TCSCCKKTVAGGAYTVS [RPL43A] | 1.65 ± 0.064 | 2.1 ± 0.11 | 1.76 ± 0.086 | 2.15 ± 0.066
PKMGVSSSSLECATCHG [RPO31] | 2.97 ± 0.085 | 3.34 ± 0.049 | 3.32 ± 0.097 | 3.2 ± 0.056
LSSLILKIFQEQSLEVF [SRB8] | 2.5 ± 0.087 | 2.67 ± 0.12 | 2.88 ± 0.09 | 2.71 ± 0.1
AVPLQIVSPQSNKPCMG [RPO21] | 1.72 ± 0.059 | 1.71 ± 0.038 | 2.03 ± 0.065 | 1.78 ± 0.035
KRRKLDLNNAVQKRDEV [SMC4] | 3.41 ± 0.26 | 2.89 ± 0.12 | 2.96 ± 0.068 | 2.96 ± 0.079
MDRDSESEEAETKDIRK [SRB4] | 3.21 ± 0.17 | 3.13 ± 0.14 | 2.62 ± 0.28 | 2.95 ± 0.16
DDDDNNESSSNTTVISD [DIS3] | 3.01 ± 0.077 | 3.24 ± 0.081 | 2.97 ± 0.049 | 2.91 ± 0.05
WQSGLKMYDYEEKEESN [RPN11] | 2.98 ± 0.13 | 3.26 ± 0.13 | 2.93 ± 0.1 | 3 ± 0.16
IVLGVKDLQENLLVLRG [RPO21] | 1.43 ± 0.078 | 1.35 ± 0.057 | 2.87 ± 0.059 | 1.5 ± 0.071
STMKENKDLSELVIRLE [YIL149C/MLP2] | 3.08 ± 0.08 | 3.1 ± 0.082 | 3.16 ± 0.065 | 3.09 ± 0.069
PHIQKMLSILEIFKKGY [POP6] | 2.42 ± 0.11 | 2.73 ± 0.099 | 3.1 ± 0.091 | 2.54 ± 0.066
IQKQIETIQADLNHVTE [SMC2] | 2.96 ± 0.047 | 3.16 ± 0.053 | 2.96 ± 0.037 | 2.87 ± 0.039
VGMRYFHKQQAHFWKPV [RPL28] | – | 3.02 ± 0.11 | – | 2.83 ± 0.09
LKLLVKLYTFLARRTDA [RPL18A] | 2.26 ± 0.073 | 1.99 ± 0.056 | 1.75 ± 0.065 | 1.97 ± 0.059
YDPKDGLYKMMEERDGA [AAR2] | 3.41 ± 0.12 | 2.94 ± 0.11 | 3.4 ± 0.092 | –
ILVPDLYHLVIMKFQSL [ECM29] | 1.28 ± 0.081 | 1.3 ± 0.086 | 1.12 ± 0.15 | 1.38 ± 0.063
ATHLPKDNVEHLVMRAI [RPN9] | 2.88 ± 0.089 | 3.09 ± 0.07 | 2.77 ± 0.067 | 2.9 ± 0.06
IKTRTVHELSKRVHTLL [ISW2] | 1.37 ± 0.091 | 1.49 ± 0.072 | 2.18 ± 0.17 | 1.49 ± 0.049
AKGVYRPNGRKDHDLKI [POP1] | 2.88 ± 0.078 | 3.08 ± 0.052 | 2.93 ± 0.049 | 3.03 ± 0.061
QQPNPLHGLTPTAKDVE [GAL11] | 3.17 ± 0.053 | 2.98 ± 0.041 | 3.15 ± 0.06 | 3.07 ± 0.033
SDIESANNQEYDLNFKL [SMC1] | 3.12 ± 0.29 | – | – | –
LEKTSRILNFFDKNTKT [YMR153W/NUP53] | 2.59 ± 0.08 | 3.09 ± 0.087 | 2.75 ± 0.089 | 2.7 ± 0.052
VDENDEVLLAGFGRKGK [RPS23A] | 1.08 ± 0.084 | 1.41 ± 0.076 | 1.15 ± 0.11 | 1.24 ± 0.068
TIAKQVLNGQKIVVVRA [RPL16B] | 3.04 ± 0.19 | 2.9 ± 0.13 | – | 2.6 ± 0.14
GQNCLDIDGIMDNPRKL [SNU114] | – | 3.43 ± 0.27 | 3.4 ± 0.092 | 3.81 ± 0.27
DDEEYDYNDVEVNSKKK [BRR2] | 3.3 ± 0.051 | 3.18 ± 0.051 | 3.32 ± 0.053 | 3.33 ± 0.036
VDKALIAEIKKTPLLKQ [RPL6A] | 2.64 ± 0.088 | 2.12 ± 0.28 | 1.92 ± 0.16 | –
